In the RNAGym collection of RNA variant scans (doi:10.1073/pnas.2313332121):
Variants at the floor of the assay were thinned out.

B1: TPR 5TU (parent)
chain: GGAUCUUCUCGAUCUAACAAAAAAGACAAAUCUGCCACAAAGCUUGAGAGCAUCUUCGGAUGCAGAGGCGGCAGCCUUCGGUGGCGCGAUAGCGCCAACGUUCUCAACUAUGACACGCAAAACGCGUGCUCCGUUGAAUGGAGUUUAUCAUG

Variants of: B1
Assay: polymerase ribozyme fitness, log enrichment relative to wild type (log ratio); higher = more active; in vitro selection for triplet polymerase activity
Outline: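 Both subunits of a heterodimeric triplet polymerase ribozyme were given their own mutant library, built by PCR and transcribed. Each library was annealed with a biotinylated primer, the partner subunit and triplets, incubated frozen at −7 °C, and its extended constructs gel-excised, captured on streptavidin beads and amplified by RT-PCR, all in one round done in triplicate. Fitness is the logarithm of genotype enrichment relative to wild-type enrichment, with replicates averaged by inverse-variance weighting. That logarithm is base 2, and Illumina-sequenced genotypes needed ≥10 input reads and ≥1 read per output.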

| Variant | polymerase ribozyme fitness (log ratio) |
| --- | --- |
| GGAUCUUCUCGAUCUAACAAAAAAGACAAAUCUGCCACAAAGCUUGAGAGCAUCUUCGGGUGCAGAGGCGGCAGCCUUCGGUGGCGCGAUAGCGCCAACGUUCUCAAUUAUGACACGCAAAACGCUUGCUCCGUUGAAUGGAGUUUAUCAUG [A60G C108U G126U] | -3.26 |
| GGAUCUUCUCGAUCUAACAAAAAAGACAAAUCUGCCACAAAGCUUGAGAGCAUCUUCGGUUGCAGAGGCGGCAGCCUUCGGUGGCGCGAUAGCGCCAAAGUUCUCAACUAUGACACGCAAAACGCGUGCUCCGUUGAAUUGAGUUUAUCAUG [A60U C99A G140U] | ≤ -4.2 |
| GGAUCUUCUCGAUCUAACAAAAAAGACAAAUCUGCCACAAAGCUUGAGAGCAUCUUCGGGUGCAGAGGCGGCAGCCUUCGGUGGCGCGAUAGUGCCAACGUUCUCAACUAUGACACGCAAAACGCGUGCUCCGUUGAAUGGAGUUUAUCAUG [A60G C93U] | -1.09 |
| GGAUCUUCUCGAUCUAACAAAAAAGACAAAUCUGCCACAAAGCUUGAGAGCAUCUUCGGGUGCAGAGGCGGCAGCCUUCGGUGGCGCGAUAGAGCCAACGUUCUCAACUAUGACACGCAAAACGCGUGCUCCGUUGAAUGGAGUUUAUCAUG [A60G C93A] | -2.81 |
| GGAUCUUCUCGAUCUAACAAAAAAGACAAAUCUGCCACAAAGCUUGAGAGCAUCUUCGGGUGCAGAGGCGGCAGCCUUCGGUAGCGCGAUAGCGCCAACGUUCUCAACUAUGACACGCAAAACGCGGGCUCCGUUAAAUGGGGUUUAUCAUG [A60G G83A U127G G136A A142G] | -3.28 |
| GGAUCUUCUCGAUCUAACAAAAAAGACAAAUCUGCCACAAAGCUUGAGAGCAUCUUCGGGUGCAGAGGCGGCAGCCUUCGGUGGCGCGAUAGCGCCAACGUUCUCAACUAUGACACGCAGAACGCGUCCUCCGUUGAAUGGGGUUUAUCAUG [A60G A120G G128C A142G] | -2.95 |
| GGAUCUUCUCGAUCUAACAAAAAAGACAAAUCUGCCACAAAGCUUGAGAGCAUCUUCGGGUGCAGAGGCGGCAGCCUUCGGUGGAGCGAUAGCGCCAACGUUCACAACUAUGACACGCAAAACGCGUGCUCCGUUGAAUGGUGUUUAUCAUG [A60G C85A U104A A142U] | -3.14 |
| GGAUCUUCUCGAUCUAACAAAAAAGACAAAUCUGCCACAAAGCUUGAGAGCAUCUUCGGGGGCAGAGGCGGCAGCCUUCGGUGGCGCGAUAGUGCCAACGUUCUCAACUAUGACACGCAAAACGCGUGCUCCGUUGAAUGGAGUUUAUCAUG [A60G U61G C93U] | -2.26 |
| GGAUCUUCUCGAUCUAACAAAAAAGACAAAUCUGCCACAAAGCUUGAGAGCAUCUUCGGGUGCAGAGGCGGCAGCCUUCGGUGGCGCGAUAGUGACAACGUUCUCAACUAUGACACGCAAAACGCGUGCUCCGUUGAAUGGAGUAUAUCAUG [A60G C93U C95A U145A] | -1.82 |
| GGAUCUUCUCGAUCUAACAAAAAAGACAAAUCUGCCACAAAGCUUGAGAGCAUCUUCGGUUGCAGAGGCGGCAGCCUUCGGUGGCGCGAUAGCGCCAACGUUCUCAACUAUGACAUGCAAAACGCGUGCUCCGUUGAAUGAAGUUUAUCAUG [A60U C116U G141A] | -0.772 |
| GGAUCUUCUCGAUCUAACAAAAAAGACAAAUCUGCCACAAAGCUUGAGAGCAUCUUCGGGUGCAGAGGCGGUAGCCUUCGGUGGCGCGAUAGCGCCAACGUUCUCAACUAUGACACGCAAAACGCGUGCUCCGUUGAAUGGAUUUUAUCAUG [A60G C72U G143U] | -3.39 |
| GGAUCUUCUCGAUCUAACAAAAAAGACAAAUCUGCCACAAAGCUUGAGAGCAUCUUCGGGUGUAGAGGCGGCAGCCUUCGGUGGCGCGAUAGCACCAACGUUCUCAACUAUGAUACGCAAAACGCGUGCUCCGUUGAAUGGAGUUUAUCAUG [A60G C63U G94A C114U] | -2.5 |
| GGAUCUUCUCGAUCUAACAAAAAAGACAAAUCUGCCACAAAGCUUGAGAGCAUCUUCGGGUGCAGAGGCGGCAGCCUUCGGUGGCGCGACAGAGCCAACGUUCUCAACUAUGACACGCAAAACGCGUGCUCCGUUGAAUGGAGUUUAUCUUG [A60G U90C C93A A150U] | -0.698 |
| GGAUCUUCUCGAUCUAACAAAAAAGACAAAUCUGCCACAAAGCUUGAGAGCAUCUUCGGGUGCAGAGGUGGCAGCCUUCGGUGGCGCGAUAGCGCCAACGUUCUCAACUAUGACACGCAAACCGCGUGCUCCGUCGAAUGGAGUUUAUCAUG [A60G C69U A122C U135C] | -3.94 |
| GGAUCUUCUCGAUCUAACAAAAAAGACAAAUCUGCCACAAAGCUUGAGAGCAUCUUCGGUUGCAGAGGCGGCAGCCUUCGGUGCCGCGAUAGCGCCAACGUUCUCAACUAUGACACGCAAAAGGCGUGCUCCGUUGAAUGGAGUUUAUCAUG [A60U G84C C123G] | -3.24 |
| GGAUCUUCUCGAUCUAACAAAAAAGACAAAUCUGCCACAAAGCUUGAGAGCAUCUUCGGGUGCAGAGGCGGCAGCCUUCGGUGGCGCGAUAGCGCCAACGUCCUCAACUAUGACACGCAAAACGCGUGCUCCGUUGAAUGGAGUUUAUCAUG [A60G U102C] | 0.0901 |
| GGAUCUUCUCGAUCUAACAAAAAAGACAAAUCUGCCACAAAGCUUGAGAGCAUCUUCGGUUGCAGAGGAGGCAGCCUUCGGUGGCGCGUUAGCGCCAACGUUCUCAACUAUGACACGCAAAACGCGUGCUCCGUUGAAUGGAGUUUAUCAUG [A60U C69A A89U] | -0.419 |
| GGAUCUUCUCGAUCUAACAAAAAAGACAAAUCUGCCACAAAGCUUGAGAGCAUCUUCGGUUGCAGAGGCGGCAGCCUUCGGUGGCGCGAUAGUGCCAACGUUCUCAACUAUGACACGCAAAACGUGUGCUCCGUUGAAUGGAGUUUAUCAUG [A60U C93U C125U] | -2.48 |
| GGAUCUUCUCGAUCUAACAAAAAAGACAAAUCUGCCACAAAGCUUGAGAGCAUCUUCGGGUGCAGAGGCGGCAGCCUUCGGUGGCGCGAUAGCGCCAACGUUCUCAACUAUGACACGCAAAACGCGUGCUCCGUUGAAUGGAGGUUAUCAUG [A60G U144G] | 1.35 |

| Variant | polymerase ribozyme fitness (log ratio) |
| --- | --- |
| GGAUCUUCUCGAUCUAACAAAAAAGACAAAUCUGCCACAAAGCUUGAGAGCAUCUUCGGUUGCAGAGGCGGCAGCCUUCGGUGGCGCGAUAGCGCCAACGUUCUCAACUAUGACACGCAAAACGCGUGCUCCGUUGAAUGCAGUUUAUCAUG [A60U G141C] | -1.16 |
| GGAUCUUCUCGAUCUAACAAAAAAGACAAAUCUGCCACAAAGCUUGAGAGCAUCUUCGGUUGCAGAGGCGGCAGCCUUCGGUGGCGCGAUAGCGCCAACGUUCUCAACUAUGACACGCAAAACGCGUGCUCCGUUGAAUGAAGUUUAUCAUG [A60U G141A] | -0.304 |
| GGAUCUUCUCGAUCUAACAAAAAAGACAAAUCUGCCACAAAGCUUGAGAGCAUCUUCGGGUGCAGAGGCGGCAGCCUUCGGUGGCGCGAUAGCGCCAACGAUCUCAACUAUGACACGCAAAACGCGUGCUCCGUUGAAUGUAGUUUCUCAUG [A60G U101A G141U A147C] | -4.13 |
| GGAUCUUCUCGAUCUAACAAAAAAGACAAAUCUGCCACAAAGCUUGAGAGCAUCUUCGGGUGCAGAGGCGGCAGCCUUCGGUGGCGCGAUAGCGCCAACGUUCGCAACUAUGACACGCAAAACGCGUGCUCCGUUGAAUGGAGUUUAUCAUG [A60G U104G] | 0.24 |
| GGAUCUUCUCGAUCUAACAAAAAAGACAAAUCUGCCACAAAGCUUGAGAGCAUCUUCGGUUGCAGAGGCGGCAGCCUUCGGUGGCGCGAUAGCCCCAACGUUCUCAACUAUGACACGCAAAACGCGUGCUCCGUUGAAUGGAGUUUAUCAUG [A60U G94C] | -1.12 |
| GGAUCUUCUCGAUCUAACAAAAAAGACAAAUCUGCCACAAAGCUUGAGAGCAUCUUCGGGUGCAGAGGCGGCAGCCUUCGGUGGCGCGAUAGCGCAAACGUUCUCAACUAUGACACGCAAAACGCGUGCUCCGUUGAAUGGAGUUUAUCAUG [A60G C96A] | -0.165 |
| GGAUCUUCUCGAUCUAACAAAAAAGACAAAUCUGCCACAAAGCUUGAGAGCAUCUUCGGUUGCAGAGGCGGCAGCCUUCGGUGGCGCGAUAGCGCCCACGUUCCCAACUAUGACACGCAAAACGCGUGCUCCGGUGAAUGGAGCUUAUCAUG [A60U A97C U104C U134G U144C] | -4.05 |
| GGAUCUUCUCGAUCUAACAAAAAAGACAAAUCUGCCACAAAGCUUGAGAGCAUCUUCGGUUGCAGAGGCGGCAGCCUUCGGUGGCGCGAUAUCGCCAACGUUCUCACCUAUGACACGCAAAACGCGUGCUCCGUUGAAUGGAGUUUAUCAUG [A60U G92U A107C] | ≤ -4.2 |
| GGAUCUUCUCGAUCUAACAAAAAAGACAAAUCUGCCACAAAGCUUGAGAGCAUCUUCGGGUGCAGAGGCGGCAGCCUUCGGUGGUGCGAUAGCGCCAACGUUCUCAACUAUGACACGCAAAACGCGUGCUCCGUUGAAUGGAGUUUAUCAUG [A60G C85U] | -0.323 |
| GGAUCUUCUCGAUCUAACAAAAAAGACAAAUCUGCCACAAAGCUUGAGAGCAUCUUCGGGUGCAGAGGCGGCAGCCUUCGGUGGCGCGAUAGCGCCAACGUUCUCAACUAUGGUACGCAAAACGCGUGCUCCGUAGAAUGGAGUUUAUCAUG [A60G A113G C114U U135A] | -3.05 |
| GGAUCUUCUCGAUCUAACAAAAAAGACAAAUCUGCCACAAAGCUUGAGAGCAUCUUCGGGUGCAGAGGCGGCAGCCUUCGGUAGCGCGAUAGCGCCAGCGUUCUCAACUAUGACACGCAAAACGCGUGCUCCGUUGAAUGGAGUUUAUCAUG [A60G G83A A98G] | 0.0303 |
| GGAUCUUCUCGAUCUAACAAAAAAGACAAAUCUGCCACAAAGCUUGAGAGCAUCUUCGGUUGCAGAGGCGGCAGCCUUCGGUGGCUCGAUAGCGCCAACGUUCUCAACUAUGACACGCAAAACGCGUGCUCCGUUGAAUGGAGUUUAUCAUG [A60U G86U] | -4.01 |
| GGAUCUUCUCGAUCUAACAAAAAAGACAAAUCUGCCACAAAGCUUGAGAGCAUCUUCGGGUGCAGAGGCGGCAGCCUUCGGUCGCGCGAUAGCGCCAACGUUCUCAACUAUGACACGCAAAACGCGUGCUCCGUUGAAUGGAGUUUAUCAUG [A60G G83C] | -0.826 |
| GGAUCUUCUCGAUCUAACAAAAAAGACAAAUCUGCCACAAAGCUUGAGAGCAUCUUCGGGUGCAGAGGCGGCAGCCUUCGGUAGCGCGAUAGCGCCAACGUUCUCAACUAUGACACGCAAAACGCGUGCUCCGUUGAAUGGAGUUUAUCAUG [A60G G83A] | -1.4 |
| GGAUCUUCUCGAUCUAACAAAAAAGACAAAUCUGCCACAAAGCUUGAGAGCAUCUUCGGGUGCAGAGGCGGCAGCCUUCGGUGGCGCGAUAGCGCCAAGGUACUCAACUAUGACACGCAAAACGCGUGCUCCGUUGAAUGGAGGUUAUCAUG [A60G C99G U102A U144G] | ≤ -4.2 |
| GGAUCUUCUCGAUCUAACAAAAAAGACAAAUCUGCCACAAAGCUUGAGAGCAUCUUCGGCUGCAGAGGCGGCAGCCUUCGGAGGCGCGAUAGCGCCAACGUUCUCAACUAUGACACGCAAAACGCGUGCUCCGUUGAAUGGAGUUUAUCAUG [A60C U82A] | -1.28 |
| GGAUCUUCUCGAUCUAACAAAAAAGACAAAUCUGCCACAAAGCUUGAGAGCAUCUUCGGGUGCAGAGGCGGCAGCCUUCGGUGGCGCUAUAGCGCCUACGUUCUCAGCUAUGAUACGCAAAACGCGUGCUCCGUUGAAUGGAGUUUAUCAUG [A60G G88U A97U A107G C114U] | ≤ -4.2 |
| GGAUCUUCUCGAUCUAACAAAAAAGACAAAUCUGCCACAAAGCUUGAGAGCAUCUUCGGUUGCAGAGGCGGCAGCCUUCGGUGGCGCGAUAGCGCCAACGUUCUCAACUAUGACACGCAAAACGCGUGGUCCGUUGAAUGGAGUUUAUCAUG [A60U C129G] | -3.43 |
| GGAUCUUCUCGAUCUAACAAAAAAGACAAAUCUGCCACAAAGCUUGAGAGCAUCUUCGGUUGCAGAGGCGGCAGCCUUCGGUGGCGCGAUAGCGCCAUCGUUCUCAACUAUGACACGCAAAACGCGUGCUCCGUUGAAUGGAGUUUAUCAUG [A60U A98U] | -0.598 |
